According to paper doi:10.1101/830265:
Like-named read-outs stand apart in the source and are kept apart here.

Columns and labels:
[1] = molecular target: total gliadin fraction (Triticum aestivum); experiment: turbidimetry
[2] = molecular target: α-gliadin (Triticum aestivum); experiment: SPR
[3] = molecular target: γ-gliadin (Triticum aestivum) (UniProt P08453); experiment: SPR
[4] = molecular target: total gliadin fraction (Triticum aestivum); experiment: turbidimetry; remark: listed apart in the source
[5] = molecular target: total gliadin fraction (Triticum aestivum); experiment: turbidimetry; remark: listed apart in the source

Chain of γ-gliadin (Triticum aestivum) (P08453 20-327): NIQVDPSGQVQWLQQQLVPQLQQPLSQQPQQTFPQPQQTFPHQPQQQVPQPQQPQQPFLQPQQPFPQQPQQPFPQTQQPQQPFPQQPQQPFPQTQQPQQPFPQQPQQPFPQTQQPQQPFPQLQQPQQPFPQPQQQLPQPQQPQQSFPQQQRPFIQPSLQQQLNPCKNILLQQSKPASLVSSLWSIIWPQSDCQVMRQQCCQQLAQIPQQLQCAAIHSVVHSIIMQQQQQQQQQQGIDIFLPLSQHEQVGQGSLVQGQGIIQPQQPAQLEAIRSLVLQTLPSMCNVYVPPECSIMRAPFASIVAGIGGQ

B1: puroindoline A (natural protein)
chain: DVAGGGGAQQCPVETKLNSCRNYLLDRCSTMKDFPVTWRWWKWWKGGCQELLGECCSRLGQMPPQCRCNIIQGSIQGDLGGIFGFQRDRASKVIQEAKNLPPRCNQGPPCNIPGTIGYYW
Work on B1 yielded a Kd [1] of 400 nM, a Kd [2] of 4450 nM and a response at equilibrium at 2.5 µM PINA [2] of 160 RU. It also gave a Kd [3] of 630 nM, a response at equilibrium at 2.5 µM PINA [3] of 34 RU and a Kd [4] of 600 nM. The Kd [5] was 1000 nM.
